The numbers were not newly measured in article PMC6457457, which cites them from elsewhere.

For the data set, the target named is LC8 (Homo sapiens) (UniProt P63167).
UniProt P63167, sequence (P63167 whole entry): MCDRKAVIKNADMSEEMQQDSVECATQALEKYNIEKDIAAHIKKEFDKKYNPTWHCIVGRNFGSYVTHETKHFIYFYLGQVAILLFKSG

For VP35 (from UniProt Q6V1Q9), the Kd (commonly the constant that tells how readily two partners part at equilibrium) is 82.4 nM.
